Numbered stars: 1 amine (or outer) side, 2 acyl side, 3 side chain; on linkers, the order of the positions; unused ones are H or OH. Bridge positions count the residues as written; N and C are the ends. Side chains are listed from the residue outwards. Ends that are not written are not given here. * marks the point of attachment. C20 diacid = O=C(O)CCCCCCCCCCCCCCCCCCC(=O)*; γGlu = O=C(O)[C@H](CCC(=O)[*:2])N[*:1]; AEEA = NCCOCCOCC(=O)O
T1: rat calcitonin receptor (rat, UniProt P32214 25-516)
T1 construct: whole, on cells; Membranes of transiently transfected BHK tk'ts 13 cells; also called rCTR; rat calcitonin (a) receptor
T1 sequence (looked up): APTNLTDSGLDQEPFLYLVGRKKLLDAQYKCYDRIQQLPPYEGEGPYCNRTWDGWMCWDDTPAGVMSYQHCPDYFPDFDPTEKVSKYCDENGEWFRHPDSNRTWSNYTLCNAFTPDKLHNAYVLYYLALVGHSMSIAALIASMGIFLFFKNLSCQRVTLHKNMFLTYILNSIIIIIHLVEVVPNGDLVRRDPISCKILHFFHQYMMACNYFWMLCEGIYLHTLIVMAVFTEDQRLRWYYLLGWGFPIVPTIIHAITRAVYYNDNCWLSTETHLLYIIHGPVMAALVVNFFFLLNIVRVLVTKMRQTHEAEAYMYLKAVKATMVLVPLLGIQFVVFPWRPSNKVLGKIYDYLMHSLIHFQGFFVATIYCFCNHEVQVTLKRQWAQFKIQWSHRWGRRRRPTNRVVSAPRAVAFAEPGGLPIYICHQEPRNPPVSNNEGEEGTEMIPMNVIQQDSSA

T2: human calcitonin receptor (human, UniProt P30988 25-474)
T2 construct: whole, on cells; Membranes of stably transfected cells; also called hCTR; hCT
T2 sequence (looked up): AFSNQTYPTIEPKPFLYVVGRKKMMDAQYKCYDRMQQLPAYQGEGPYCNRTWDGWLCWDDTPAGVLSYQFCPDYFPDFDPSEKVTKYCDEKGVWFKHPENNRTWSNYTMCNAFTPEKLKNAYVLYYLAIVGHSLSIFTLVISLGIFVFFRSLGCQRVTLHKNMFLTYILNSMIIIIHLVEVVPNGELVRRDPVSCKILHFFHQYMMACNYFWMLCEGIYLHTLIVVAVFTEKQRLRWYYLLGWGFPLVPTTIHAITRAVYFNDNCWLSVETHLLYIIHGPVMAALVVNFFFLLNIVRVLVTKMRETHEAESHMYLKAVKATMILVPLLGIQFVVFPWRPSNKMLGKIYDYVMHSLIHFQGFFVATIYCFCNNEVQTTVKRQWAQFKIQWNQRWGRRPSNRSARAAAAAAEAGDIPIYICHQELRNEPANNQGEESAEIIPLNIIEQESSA

T3: rat amylin receptor (rat calcitonin receptor + rat RAMP 3) (rat, UniProt P32214 25-516; Q9JJ73 23-147)
T3 construct: whole, on cells; Membranes of transiently transfected BHK tk'ts 13 cells; also called rAmylin-R; rat amylin 3(a) receptor
T3 sequence (looked up) 1: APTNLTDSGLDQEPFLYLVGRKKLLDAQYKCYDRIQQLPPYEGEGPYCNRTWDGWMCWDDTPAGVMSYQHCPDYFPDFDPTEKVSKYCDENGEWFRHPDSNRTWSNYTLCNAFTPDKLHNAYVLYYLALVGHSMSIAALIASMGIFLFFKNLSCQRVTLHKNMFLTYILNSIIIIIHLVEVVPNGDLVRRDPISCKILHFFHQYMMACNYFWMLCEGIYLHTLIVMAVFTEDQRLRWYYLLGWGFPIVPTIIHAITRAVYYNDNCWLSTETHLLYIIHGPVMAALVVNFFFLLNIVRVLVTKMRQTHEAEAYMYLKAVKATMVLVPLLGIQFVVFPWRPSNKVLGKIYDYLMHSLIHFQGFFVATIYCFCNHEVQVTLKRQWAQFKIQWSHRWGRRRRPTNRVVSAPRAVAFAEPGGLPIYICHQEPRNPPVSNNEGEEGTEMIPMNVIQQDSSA
T3 sequence (looked up) 2: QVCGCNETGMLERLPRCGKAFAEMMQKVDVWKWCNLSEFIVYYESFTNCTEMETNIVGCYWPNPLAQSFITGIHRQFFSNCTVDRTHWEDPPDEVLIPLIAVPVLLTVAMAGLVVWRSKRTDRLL

T4: rat calcitonin receptor (rat, UniProt P32214 25-516)
T4 construct: whole, on cells; Used as membranes prepared from the transfected cells; also called rCTR; rCT
T4 sequence (looked up): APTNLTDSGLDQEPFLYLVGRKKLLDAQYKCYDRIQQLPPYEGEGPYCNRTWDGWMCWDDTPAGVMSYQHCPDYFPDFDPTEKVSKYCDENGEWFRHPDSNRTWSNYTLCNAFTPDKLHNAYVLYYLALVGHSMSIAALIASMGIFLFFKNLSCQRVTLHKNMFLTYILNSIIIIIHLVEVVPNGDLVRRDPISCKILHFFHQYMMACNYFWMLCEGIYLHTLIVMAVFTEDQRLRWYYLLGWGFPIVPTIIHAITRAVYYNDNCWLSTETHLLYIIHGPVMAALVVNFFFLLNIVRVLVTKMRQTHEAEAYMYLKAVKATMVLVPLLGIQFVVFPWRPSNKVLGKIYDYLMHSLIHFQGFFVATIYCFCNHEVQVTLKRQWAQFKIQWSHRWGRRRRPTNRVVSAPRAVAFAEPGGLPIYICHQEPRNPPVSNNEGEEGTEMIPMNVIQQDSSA

T5: human calcitonin receptor (human, UniProt P30988 25-474)
T5 construct: whole, on cells; Used as membranes prepared from the transfected cells; also called hCTR; hCT
T5 sequence (looked up): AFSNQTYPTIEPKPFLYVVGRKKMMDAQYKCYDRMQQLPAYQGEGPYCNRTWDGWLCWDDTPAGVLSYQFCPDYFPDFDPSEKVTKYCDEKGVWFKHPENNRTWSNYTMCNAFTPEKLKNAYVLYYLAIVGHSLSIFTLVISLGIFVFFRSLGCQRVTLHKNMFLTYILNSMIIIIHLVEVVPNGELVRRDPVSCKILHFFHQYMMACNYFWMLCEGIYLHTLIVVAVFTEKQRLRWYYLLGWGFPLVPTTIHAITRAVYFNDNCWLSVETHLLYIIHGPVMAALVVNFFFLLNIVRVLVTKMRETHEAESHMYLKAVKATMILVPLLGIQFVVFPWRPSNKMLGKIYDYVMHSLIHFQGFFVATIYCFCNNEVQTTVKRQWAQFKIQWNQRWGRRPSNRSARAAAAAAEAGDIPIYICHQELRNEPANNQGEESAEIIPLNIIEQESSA


Experiments:
rat calcitonin receptor [1] = target: T1, rat calcitonin receptor; assay: ratio of IC50 on rat calcitonin receptor to IC50 on rat amylin receptor (reference m40)
[2] = target: T2, human calcitonin receptor; assay: ratio of IC50 on human calcitonin receptor to IC50 on human amylin receptor (reference m42), SPA competition
In short: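 IC₅₀ values were derived by one-site competition analysis of SPA counts. Cell membranes (35 ng/μL) with SPA beads were incubated with test compounds for 120 min at 25° C in Hepes buffer, pH 7.4, containing CaCl2, MgCl₂, OA and Tween20.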

rat calcitonin receptor [3] = target: T1, rat calcitonin receptor; assay: SPA competition with 125I-calcitonin on membranes of BHK tk'ts 13 cells with rat calcitonin receptor (Assay VIII)
[4] = target: T3, rat amylin receptor (rat calcitonin …); assay: SPA competition with 125I-rat amylin on membranes of BHK tk'ts 13 cells with rat calcitonin receptor + rat RAMP3 (Assay VI)
rat calcitonin receptor [5] = target: T4, rat calcitonin receptor; assay: SPA competition with 125I-calcitonin, membranes with rat calcitonin receptor (Assay VIII)
rat calcitonin receptor [6] = target: T4, rat calcitonin receptor; assay: ratio of binding IC50 at rat calcitonin receptor to IC50 at rat amylin receptor (reference)
[7] = target: T5, human calcitonin receptor; assay: ratio of binding IC50 at human calcitonin receptor to IC50 at human amylin receptor (reference)
Description: The resulting pellet was resuspended, homogenized and centrifuged (20.000 rpm, 15 min) in a buffer containing 20 mM Na-HEPES and 0.1 mM EDTA (pH 7.4, buffer 2). The resulting pellet was resuspended in buffer 2 and protein concentration was measured (BCA protein Assay, Pierce). The homogenate was kept cold during the whole procedure. The membranes were kept at −80° C. until use. The assay was performed in a 384 well Optiplate (PerkinElmer) in a total volume of 40 ul. Membranes were mixed with SPA beads. Final concentration of membranes 35 ng/μL final and SPA beads was 0.05 mg/well. Test-compounds were dissolved in DMSO and further diluted in assay buffer (50 mM Hepes, pH 7.4, 1 mM CaCl2, 5 mM MgCl₂, 0.1% OA and 0.02% Tween20). […] The final mixture was incubated with shaking at 400 rpm for 120 min at 25° C. prior to centrifugation (1500 rpm, 10 min). Samples were analyzed on TopCounter™ (Packard). The IC₅₀ was calculated using (one site binding competition analysis) GraphPad Prism5 as a measure of receptor affinity.
Membranes were prepared in the following way; the cells were rinsed with PBS and incubated with Versene for approximately 5 min before harvesting. The cells were flushed with PBS and the cell-suspension was centrifuged for 5 min at 1000 rpm. Cells were homogenized (Ultrathurrax) in a buffer containing 20 mM Na-HEPES and 10 mM EDTA (pH 7.4) and centrifuged at 20.000 rpm for 15 min. The resulting pellet was resuspended, homogenized and centrifuged (20.000 rpm, 15 min) in a buffer containing 20 mM Na-HEPES and 0.1 mM EDTA (pH 7.4, buffer 2). The resulting pellet was resuspended in buffer 2 and protein concentration was measured (BCA protein Assay, Pierce). The homogenate was kept cold during the whole procedure. The membranes were kept at −80° C. until use. Assay was performed in a 384 well Optiplate (PerkinElmer) in a total volume of 40 ul. Membranes were mixed with SPA beads.

Row | Binder | Ratio rCT/rAmylin binding (rat calcitonin receptor [1]) | Ratio hCT/hAmylin binding [2] | IC50 (rat calcitonin receptor [3]) [nM] | IC50 [4] [nM] | IC50 (rat calcitonin receptor [5]) [nM] | Ratio rCT/rAmylin binding (rat calcitonin receptor [6]) | Ratio hCT/hAmylin binding [7]
1 | K([γGlu-C20 diacid])CNTATCATQRLAEFLRHSSPNFGAIPSSTNVGPETY-NH2 (disulfide 2-7; N-terminus assumed; SMILES CC[C@H](C)[C@H](NC(=O)[C@H](C)NC(=O)CNC(=O)[C@H](Cc1ccccc1)NC(=O)[C@H](CC(N)=O)NC(=O)[C@@H]1CCCN1C(=O)[C@H](CO)NC(=O)[C@H](CO)NC(=O)[C@H](Cc1c[nH]cn1)NC(=O)[C@H](CCCNC(=N)N)NC(=O)[C@H](CC(C)C)NC(=O)[C@H](Cc1ccccc1)NC(=O)[C@H](CCC(=O)O)NC(=O)[C@H](C)NC(=O)[C@H](CC(C)C)NC(=O)[C@H](CCCNC(=N)N)NC(=O)[C@H](CCC(N)=O)NC(=O)[C@@H](NC(=O)[C@H](C)NC(=O)[C@@H]1CSSC[C@H](NC(=O)[C@@H](N)CCCCNC(=O)CC[C@H](NC(=O)CCCCCCCCCCCCCCCCCCC(=O)O)C(=O)O)C(=O)N[C@@H](CC(N)=O)C(=O)N[C@@H]([C@@H](C)O)C(=O)N[C@@H](C)C(=O)N[C@@H]([C@@H](C)O)C(=O)N1)[C@@H](C)O)C(=O)N1CCC[C@H]1C(=O)N[C@@H](CO)C(=O)N[C@@H](CO)C(=O)N[C@H](C(=O)N[C@@H](CC(N)=O)C(=O)N[C@H](C(=O)NCC(=O)N1CCC[C@H]1C(=O)N[C@@H](CCC(=O)O)C(=O)N[C@H](C(=O)N[C@@H](Cc1ccc(O)cc1)C(N)=O)[C@@H](C)O)C(C)C)[C@@H](C)O, Synthetic acylated analogue of human amylin) | 63.2 | 13.3 | 10.4 | 0.164 | – | – | –
2 | K([AEEA-γGlu-C20 diacid])CNTATCATQRLAHFLRHSSPNFGAIPSSTNVGSNTY-NH2 (disulfide 2-7; N-terminus assumed; SMILES CC[C@H](C)[C@H](NC(=O)[C@H](C)NC(=O)CNC(=O)[C@H](Cc1ccccc1)NC(=O)[C@H](CC(N)=O)NC(=O)[C@@H]1CCCN1C(=O)[C@H](CO)NC(=O)[C@H](CO)NC(=O)[C@H](Cc1c[nH]cn1)NC(=O)[C@H](CCCNC(=N)N)NC(=O)[C@H](CC(C)C)NC(=O)[C@H](Cc1ccccc1)NC(=O)[C@H](Cc1c[nH]cn1)NC(=O)[C@H](C)NC(=O)[C@H](CC(C)C)NC(=O)[C@H](CCCNC(=N)N)NC(=O)[C@H](CCC(N)=O)NC(=O)[C@@H](NC(=O)[C@H](C)NC(=O)[C@@H]1CSSC[C@H](NC(=O)[C@@H](N)CCCCNC(=O)COCCOCCNC(=O)CC[C@H](NC(=O)CCCCCCCCCCCCCCCCCCC(=O)O)C(=O)O)C(=O)N[C@@H](CC(N)=O)C(=O)N[C@@H]([C@@H](C)O)C(=O)N[C@@H](C)C(=O)N[C@@H]([C@@H](C)O)C(=O)N1)[C@@H](C)O)C(=O)N1CCC[C@H]1C(=O)N[C@@H](CO)C(=O)N[C@@H](CO)C(=O)N[C@H](C(=O)N[C@@H](CC(N)=O)C(=O)N[C@H](C(=O)NCC(=O)N[C@@H](CO)C(=O)N[C@@H](CC(N)=O)C(=O)N[C@H](C(=O)N[C@@H](Cc1ccc(O)cc1)C(N)=O)[C@@H](C)O)C(C)C)[C@@H](C)O, Analogue of human amylin; disulfide and C-terminal amide as told for h-amylin; also called compound 69) | – | – | – | – | 46.8 | 104 | 65.3
3 | {C20 diacid-γGlu}-GRCNTATCATQRLAHFLRHSSPNFGAIPSSTNVGSNTY-NH2 (disulfide 3-8; SMILES CC[C@H](C)[C@H](NC(=O)[C@H](C)NC(=O)CNC(=O)[C@H](Cc1ccccc1)NC(=O)[C@H](CC(N)=O)NC(=O)[C@@H]1CCCN1C(=O)[C@H](CO)NC(=O)[C@H](CO)NC(=O)[C@H](Cc1c[nH]cn1)NC(=O)[C@H](CCCNC(=N)N)NC(=O)[C@H](CC(C)C)NC(=O)[C@H](Cc1ccccc1)NC(=O)[C@H](Cc1c[nH]cn1)NC(=O)[C@H](C)NC(=O)[C@H](CC(C)C)NC(=O)[C@H](CCCNC(=N)N)NC(=O)[C@H](CCC(N)=O)NC(=O)[C@@H](NC(=O)[C@H](C)NC(=O)[C@@H]1CSSC[C@H](NC(=O)[C@H](CCCNC(=N)N)NC(=O)CNC(=O)CC[C@H](NC(=O)CCCCCCCCCCCCCCCCCCC(=O)O)C(=O)O)C(=O)N[C@@H](CC(N)=O)C(=O)N[C@@H]([C@@H](C)O)C(=O)N[C@@H](C)C(=O)N[C@@H]([C@@H](C)O)C(=O)N1)[C@@H](C)O)C(=O)N1CCC[C@H]1C(=O)N[C@@H](CO)C(=O)N[C@@H](CO)C(=O)N[C@H](C(=O)N[C@@H](CC(N)=O)C(=O)N[C@H](C(=O)NCC(=O)N[C@@H](CO)C(=O)N[C@@H](CC(N)=O)C(=O)N[C@H](C(=O)N[C@@H](Cc1ccc(O)cc1)C(N)=O)[C@@H](C)O)C(C)C)[C@@H](C)O, Synthetic acylated analogue of human amylin, extended by Gly at position -1; also called compound 99) | 79.8 | 100 | 216 | 2.7 | – | – | –
